Blank lines part the entries; values can stand above or below the substance they belong to.
Legend:
[1] = biological target: McdB IDR + CC truncation (Synechococcus elongatus PCC 7942); test: SEC-MALS; Shodex PROTEIN KW-804; 50 µl at 1.5 mg/ml; 150 mM KCl, 20 mM Tris-HCl pH 8.2; BSA as calibration standard
[2] = biological target: McdB CC + CTD truncation (Synechococcus elongatus PCC 7942); test: as above
[3] = biological target: Se7942 McdB (full-length, wild type) (Synechococcus elongatus PCC 7942); test: as above
[4] = biological target: McdB with all six basic residues of the IDR substituted to glutamines; test: SEC-MALS
[5] = biological target: McdB CC domain truncation (Synechococcus elongatus PCC 7942); test: SEC-MALS; Shodex PROTEIN KW-804; 50 µl at 1.5 mg/ml; 150 mM KCl, 20 mM Tris-HCl pH 8.2; BSA as calibration standard
[6] = biological target: McdB with four glutamine substitutions in the CTD; test: SEC-MALS
[7] = biological target: McdB with four glutamine substitutions in the CTD; test: SEC-MALS; remark: listed apart in the source
[8] = biological target: McdB with all six basic residues of the IDR substituted to glutamines (Synechococcus elongatus PCC 7942); test: SEC-MALS; Shodex PROTEIN KW-804; 50 µl at 1.5 mg/ml; 150 mM KCl, 20 mM Tris-HCl pH 8.2; BSA as calibration standard
McdB CTD 2Q left = test: SEC-MALS

Substance: McdB IDR + CC truncation (domain or fragment)
stoichiometry N [1]: 2

Substance: McdB CC + CTD truncation (domain or fragment)
stoichiometry N [2]: 6

Substance: Se7942 McdB (full-length, wild type) (natural protein)
stoichiometry N [3]: 6

Substance: Se7942 McdB (full-length, wild type) CTD all: … -> … (E->Q, E->Q, E->Q, D->Q at segment positions 1, 2, 9, 11)
other: multiple (oligomer MW over monomer MW) ([6]; parent: 5.5): 1.8 x
other: oligomer MW (SEC-MALS) ([6]; parent: 96.4): 31.8 kDa
other: multiple (oligomer MW over monomer MW) ([7]; parent: 5.5): 1.8 x
other: oligomer MW (SEC-MALS) ([7]; parent: 96.4): 31.8 kDa

Now from value to substance:

other: multiple (oligomer MW over monomer MW) ([4]; parent: 5.5): 5.6 x
other: oligomer MW (SEC-MALS) ([4]; parent: 96.4): 96.1 kDa
Substance: Se7942 McdB (full-length, wild type) R7Q; K9Q; K10Q; R11Q; R13Q; R18Q

stoichiometry N [5]: 2
Substance: McdB CC domain truncation (domain or fragment)

stoichiometry N [8]: 6
Substance: McdB with all six basic residues of the IDR substituted to glutamines (natural protein)

other: multiple (oligomer MW over monomer MW) (McdB CTD 2Q left; parent: 5.5): 4.5 x
other: oligomer MW (SEC-MALS) (McdB CTD 2Q left; parent: 96.4): 77.8 kDa
Substance: Se7942 McdB (full-length, wild type) CTD 2Q left: … -> … (E->Q, E->Q at segment positions 1, 2)
